Measurements published in patent US20210205408A1.

Molecular target: PRX302 (modified proaerolysin in which the furin site is replaced with a PSA-specific cleavage site) (Aeromonas hydrophilia (engineered variant)) (UniProt P09167)
Experiment: cell-based or functional assay

Prostate Specific Antigen (PSA), enzymatically active (from UniProt P07288 25-261) (enzyme)
hemolysis (red blood cells) after pre-incubation of PRX302 with enzymatically active PSA in aqueous buffer: 45 % hemolysis
